Data published in patent US20210292428A1 (US Dept. of Health and Human Services, published 2021).

Columns and labels:
Human GPC2-His = molecular target: T1, Human GPC2-His (human, UniProt Q8N158 24-554)
T1 sequence: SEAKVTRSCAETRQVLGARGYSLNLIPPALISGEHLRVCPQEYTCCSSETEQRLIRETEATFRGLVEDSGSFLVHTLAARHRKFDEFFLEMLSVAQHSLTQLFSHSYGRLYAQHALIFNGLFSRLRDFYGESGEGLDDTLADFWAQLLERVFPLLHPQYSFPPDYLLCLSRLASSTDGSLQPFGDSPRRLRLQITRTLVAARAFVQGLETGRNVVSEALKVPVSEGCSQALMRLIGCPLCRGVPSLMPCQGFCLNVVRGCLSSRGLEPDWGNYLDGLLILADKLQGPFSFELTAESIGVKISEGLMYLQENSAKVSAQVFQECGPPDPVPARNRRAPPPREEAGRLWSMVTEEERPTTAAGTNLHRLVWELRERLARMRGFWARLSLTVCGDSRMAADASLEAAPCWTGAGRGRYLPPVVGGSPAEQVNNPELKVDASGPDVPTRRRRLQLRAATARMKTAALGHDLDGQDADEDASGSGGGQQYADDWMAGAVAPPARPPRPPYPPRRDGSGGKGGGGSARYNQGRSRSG

[1] = molecular target: T2, recombinant human glypican-5 (human, UniProt P78333 25-554, limits assumed); assay: ELISA on recombinant glypican proteins, absorbance OD450nm
T2 construct: also called huGPC5
T2 sequence (looked up): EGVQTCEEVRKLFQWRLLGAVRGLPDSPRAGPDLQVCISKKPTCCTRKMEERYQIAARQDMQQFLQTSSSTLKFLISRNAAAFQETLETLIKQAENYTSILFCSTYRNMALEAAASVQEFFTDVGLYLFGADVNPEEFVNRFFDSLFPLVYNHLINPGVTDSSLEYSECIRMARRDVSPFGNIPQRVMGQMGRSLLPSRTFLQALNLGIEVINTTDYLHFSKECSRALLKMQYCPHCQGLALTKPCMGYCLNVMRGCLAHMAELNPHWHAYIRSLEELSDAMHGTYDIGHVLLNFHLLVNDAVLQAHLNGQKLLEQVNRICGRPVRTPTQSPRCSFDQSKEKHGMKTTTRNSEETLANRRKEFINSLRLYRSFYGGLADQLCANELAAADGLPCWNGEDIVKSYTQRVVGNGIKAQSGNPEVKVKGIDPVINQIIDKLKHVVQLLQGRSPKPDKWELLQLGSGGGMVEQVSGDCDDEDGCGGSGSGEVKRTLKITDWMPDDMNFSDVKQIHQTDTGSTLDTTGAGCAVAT

[2] = molecular target: T3, recombinant human glypican-3 (human, UniProt P51654 25-559); assay: as above
T3 construct: also called human GPC3; huGPC3
T3 sequence (P51654 25-559 limits assumed): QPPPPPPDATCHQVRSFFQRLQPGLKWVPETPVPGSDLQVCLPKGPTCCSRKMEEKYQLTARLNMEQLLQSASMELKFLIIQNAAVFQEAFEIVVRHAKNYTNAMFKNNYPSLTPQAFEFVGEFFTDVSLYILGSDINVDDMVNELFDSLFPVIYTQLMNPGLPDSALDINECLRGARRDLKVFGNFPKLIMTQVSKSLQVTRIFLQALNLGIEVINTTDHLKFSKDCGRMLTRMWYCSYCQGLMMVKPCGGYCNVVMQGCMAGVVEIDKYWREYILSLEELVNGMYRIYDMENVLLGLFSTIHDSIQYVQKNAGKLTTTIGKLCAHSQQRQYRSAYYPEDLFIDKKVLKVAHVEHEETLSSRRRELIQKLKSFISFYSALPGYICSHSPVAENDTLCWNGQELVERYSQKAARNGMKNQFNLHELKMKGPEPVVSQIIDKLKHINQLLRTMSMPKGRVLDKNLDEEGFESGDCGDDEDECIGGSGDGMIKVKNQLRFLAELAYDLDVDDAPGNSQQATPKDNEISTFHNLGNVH

[3] = molecular target: T4, recombinant human glypican-2 (GPC2) (human, UniProt Q8N158 24-554, limits assumed); assay: as above
T4 construct: also called human GPC2; huGPC2
T4 sequence (looked up): T1 sequence

[4] = molecular target: T5, recombinant human glypican-6 (human, UniProt Q9Y625 24-529); assay: as above
T5 construct: also called human GPC6; huGPC6
T5 sequence (looked up): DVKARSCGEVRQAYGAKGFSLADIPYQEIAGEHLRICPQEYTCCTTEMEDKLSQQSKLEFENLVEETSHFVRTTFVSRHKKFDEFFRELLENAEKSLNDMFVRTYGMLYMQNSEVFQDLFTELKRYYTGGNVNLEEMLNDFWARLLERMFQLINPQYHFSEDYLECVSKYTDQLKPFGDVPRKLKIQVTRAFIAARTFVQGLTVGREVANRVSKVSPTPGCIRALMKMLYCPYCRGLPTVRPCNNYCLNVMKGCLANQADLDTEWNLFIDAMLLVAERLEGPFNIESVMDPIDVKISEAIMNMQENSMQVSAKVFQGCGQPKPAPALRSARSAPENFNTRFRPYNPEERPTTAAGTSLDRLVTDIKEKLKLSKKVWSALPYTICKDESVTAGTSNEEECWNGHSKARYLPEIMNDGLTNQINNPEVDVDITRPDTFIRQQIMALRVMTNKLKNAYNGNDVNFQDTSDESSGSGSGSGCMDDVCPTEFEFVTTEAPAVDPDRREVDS

[5] = molecular target: T6, human GPC2 expressed on the cell surface (human, UniProt Q8N158 24-554); assay: flow cytometry on GPC2-positive neuroblastoma cell lines LAN1 and IMR5, CT5 at 10 ng/ml, counts normalized to mode
T6 construct: whole, on cells; also called cell-surface GPC2; GPC2 on LAN1, IMR5, G10, F8, SKNBE2 and NBEB cells
T6 sequence (looked up): T1 sequence

[6] = molecular target: T2, recombinant human glypican-5; assay: ELISA on recombinant human glypicans and mouse GPC2, absorbance OD450nm
[7] = molecular target: T7, recombinant human glypican-1 (human, UniProt P35052 24-530); assay: as above
T7 construct: also called huGPC1
T7 sequence (looked up): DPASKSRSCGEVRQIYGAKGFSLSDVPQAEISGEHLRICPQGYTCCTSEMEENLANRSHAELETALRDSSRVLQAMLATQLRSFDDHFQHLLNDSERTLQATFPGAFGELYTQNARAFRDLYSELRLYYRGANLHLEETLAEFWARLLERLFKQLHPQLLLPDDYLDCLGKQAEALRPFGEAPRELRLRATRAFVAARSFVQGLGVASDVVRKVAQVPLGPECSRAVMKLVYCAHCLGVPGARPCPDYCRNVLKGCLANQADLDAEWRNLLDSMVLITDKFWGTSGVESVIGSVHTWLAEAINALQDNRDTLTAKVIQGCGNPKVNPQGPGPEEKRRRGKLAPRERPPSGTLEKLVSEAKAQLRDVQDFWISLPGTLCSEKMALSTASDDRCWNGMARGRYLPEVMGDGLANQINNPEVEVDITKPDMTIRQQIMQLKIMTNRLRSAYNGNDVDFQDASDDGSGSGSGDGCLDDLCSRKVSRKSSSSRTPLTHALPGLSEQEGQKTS

recombinant mouse GPC2 = molecular target: T8, recombinant mouse GPC2 (mouse, UniProt Q8BKV1 22-556, limits assumed); assay: as above
T8 construct: also called msGPC2
T8 sequence (looked up): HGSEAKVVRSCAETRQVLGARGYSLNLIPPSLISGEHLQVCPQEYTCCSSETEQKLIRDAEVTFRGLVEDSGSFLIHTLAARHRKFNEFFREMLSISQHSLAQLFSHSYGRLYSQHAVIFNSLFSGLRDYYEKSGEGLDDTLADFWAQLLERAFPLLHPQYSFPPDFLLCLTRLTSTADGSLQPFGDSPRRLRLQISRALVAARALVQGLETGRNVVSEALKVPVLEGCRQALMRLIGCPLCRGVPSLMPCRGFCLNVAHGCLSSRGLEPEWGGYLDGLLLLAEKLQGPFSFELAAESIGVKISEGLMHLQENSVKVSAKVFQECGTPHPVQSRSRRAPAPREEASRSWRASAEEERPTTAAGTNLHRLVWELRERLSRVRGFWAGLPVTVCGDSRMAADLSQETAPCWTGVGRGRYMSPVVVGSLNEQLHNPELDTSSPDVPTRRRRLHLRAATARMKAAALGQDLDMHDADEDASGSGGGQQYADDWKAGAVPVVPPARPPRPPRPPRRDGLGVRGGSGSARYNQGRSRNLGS

[8] = molecular target: T9, recombinant human glypican-4 (human, UniProt O75487 19-529, limits assumed); assay: as above
T9 construct: also called huGPC4
T9 sequence (looked up): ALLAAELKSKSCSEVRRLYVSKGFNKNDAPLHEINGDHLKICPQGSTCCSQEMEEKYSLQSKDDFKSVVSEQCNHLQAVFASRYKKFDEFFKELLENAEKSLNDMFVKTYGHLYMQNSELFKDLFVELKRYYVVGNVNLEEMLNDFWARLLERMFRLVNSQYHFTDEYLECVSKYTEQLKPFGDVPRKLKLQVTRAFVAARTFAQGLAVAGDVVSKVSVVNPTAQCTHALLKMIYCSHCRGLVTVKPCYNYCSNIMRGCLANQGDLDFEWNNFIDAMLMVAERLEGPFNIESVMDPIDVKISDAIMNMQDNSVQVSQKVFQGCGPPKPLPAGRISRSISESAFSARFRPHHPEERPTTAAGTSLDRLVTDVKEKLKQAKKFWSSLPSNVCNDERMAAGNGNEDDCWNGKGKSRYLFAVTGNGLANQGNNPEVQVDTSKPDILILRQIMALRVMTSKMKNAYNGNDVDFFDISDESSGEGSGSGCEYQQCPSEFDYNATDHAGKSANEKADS

[9] = molecular target: T5, recombinant human glypican-6; assay: as above
[10] = molecular target: T4, recombinant human glypican-2 (GPC2); assay: Octet kinetic analysis (BLI), FIG. 1C

B1: CT3-T20 immunotoxin (other)
chain: EVQLQQSGPELVKPGASVKMSCKASRFTFTDYNIHWVKQSPGKTLEWIGYINPNNGDIFYKQKFNGKATLTINKSSNTAYMELRSLTSEDSAVYYCVRSSNIRYTFDRFFDVWGTGTTVTVSSGGGGSGGGGSGGGGSENVLTQSPAIMSASLGEKVTMSCRASSSVNYIYWYQQKSDASPKLWIYYTSNLAPGVPARFSGSGSGNSYSLTISSMEGEDAATYYCQQFSSSPSTFGTGTKLELKKLKASGGRHRQPRGWEQLGGGGGSPTGAEFLGDGGDVSFSTRGTQNWTVERLLQAHAQLEERGYVFVGYHGTALEAAQSIVFGGVRARSQDLDAIWRGFYIAGDPAHAYGYAQDQEPDARGRIANGALLRVYVPASSLPGFYRTSLTLAAPEAAGEVERLIGHPLPLRLDAITGPEEEGGREETILGWPLAERTVVIPSAIPTDPRNVGGDLDPSSIPDKEQAISALPDYASQPGKPPREDLK
Kd (Human GPC2-His): 0.16 nM

B2: CT3-PE38 immunotoxin (other)
chain: EVQLQQSGPELVKPGASVKMSCKASRFTFTDYNIHWVKQSPGKTLEWIGYINPNNGDIFYKQKFNGKATLTINKSSNTAYMELRSLTSEDSAVYYCVRSSNIRYTFDRFFDVWGTGTTVTVSSGGGGSGGGGSGGGGSENVLTQSPAIMSASLGEKVTMSCRASSSVNYIYWYQQKSDASPKLWIYYTSNLAPGVPARFSGSGSGNSYSLTISSMEGEDAATYYCQQFSSSPSTFGTGTKLELKSAAKASGGPEGGSLAALTAHQACHLPLETFTRHRQPRGWEQLEQCGYPVQRLVALYLAARLSWNQVDQVIRNALASPGSGGDLGEAIREQPEQARLALTLAAAESERFVRQGTGNDEAGAANGPADSGDALLERNYPTGAEFLGDGGDVSFSTRGTQNWTVERLLQAHRQLEERGYVFVGYHGTFLEAAQSIVFGGVRARSQDLDAIWRGFYIAGDPALAYGYAQDQEPDARGRIRNGALLRVYVPRSSLPGFYRTSLTLAAPEAAGEVERLIGHPLPLRLDAITGPEEEGGRLETILGWPLAERTVVIPSAIPTDPRNVGGDLDPSSIPDKEQAISALPDYASQPGKPPREDLK
Kd (Human GPC2-His): 0.22 nM

B3: CT5 antibody (antibody, IgG1, V domains shown)
VH: EVKLVESGGGLVQSGRSLRLSCATSGFTFSDFYMEWVRQAPGKGLEWIVASRDKANDYTTAYSASVKGRFIVSRDTSQSILYLQMNALRAEDTAIYYCVRDFYDYDEAYWGQGTLVTVS
VL: DIQMTQSPSSLSASLGGTVTITCKASEDINNYIAWYQHKPGKGPRLLIQYTSTLQPGIPSRFSGSGSGRDYSLSISNLEPEDIATYYCLQYDILWTFGGGTKLEIK
binding result [1]: no binding
binding result [2]: no binding
binding result [3]: binds
binding result [4]: no binding
binding result [5]: binds

B4: CT3 antibody (antibody, IgG1, V domains shown)
VH: EVQLQQSGPELVKPGASVKMSCKASRFTFTDYNIHWVKQSPGKTLEWIGYINPNNGDIFYKQKFNGKATLTINKSSNTAYMELRSLTSEDSAVYYCVRSSNIRYTFDRFFDVWGTGTTVTVSS
VL: ENVLTQSPAIMSASLGEKVTMSCRASSSVNYIYWYQQKSDASPKLWIYYTSNLAPGVPARFSGSGSGNSYSLTISSMEGEDAATYYCQQFSSSPSTFGTGTKLELK
notes: also called anti-GPC2 antibody CT3
binding result [2]: no binding
binding result [6]: no binding
binding result [7]: no binding
binding result (recombinant mouse GPC2): no binding
binding result [8]: no binding
binding result [9]: no binding
Kd [10]: 0.5 nM
